Experimental data: US20240287161A1 (NATIONAL UNIVERSITY CORPORATION TOTTORI UNIVERSITY, published 2024)

Legend:
[1] = biological target: T1, MERS-CoV trimeric S protein (amino acids 13-1296) with T4 foldon, histidine tag and strep-tag (MERS-CoV, UniProt K9N5Q8 16-1293); assay: ELISA on coated S-trimeric antigen, anti-human IgG-HRP [Human IgG1, NT-193]
[2] = biological target: T1, MERS-CoV trimeric S protein (amino …); assay: ELISA on coated S-trimeric antigen, anti-human IgG-HRP [Human IgG3, NT-193]
[3] = biological target: T1, MERS-CoV trimeric S protein (amino …); assay: ELISA on coated S-trimeric antigen, anti-human IgG-HRP [Human IgG1, NT-108]

B1: NT-193 (recombinant human IgG1/kappa antibody) (antibody, V domains shown)
VH: EVQLQQWGAGLLKPSETLSLTCAVYGGSFSGYYWSWIRQPPGKGLEWIGEINHSGSTNYNPSLKSRVTISVDTSKNQFSLKLSSVTAADTAVYYCARGWDLDYYYGMDVWGQGTTVTVSS
VL: DIRMTQSPSAMSASVGDRVTVTCRASQGIGNYLAWFQLKPGKVPKRLIYAASSLQSGVPARFSGGGSGTEFTLTISSLQPEDFATYYCLQHGFLPWTFGQGTKLEIK
B1: no binding (tested: 1000 ng/ml) [1].

B2: NT-193, human IgG3 subclass (antibody, V domains shown)
VH: B1 VH
VL: B1 VL
B2: no binding (tested: 1000 ng/ml) [2].

B3: NT-108 (recombinant human IgG1/kappa antibody) (antibody, V domains shown)
VH: EVQLQQSGPGLVKPSQTLSLTCSISGDSVSSNSAAWNWIRQSPSRGLEWLGRTYYRSKWYNDYAGTVKSRIAINPDTSKNQFSLHLNSVTPEDTAVYFCARVISVAGYAFDIWGQGTMVTVSS
VL: EIVLTQSPGTLSLSPGERATLSCRASQSVSSTFLAWYQQKPGQAPRLLIYGASYMATGIPDRFSGSGSGTDFTLTISRLEPEDFAVYYCQQYGSSLTFGGGTKLEIK
B3: no binding (tested: 1000 ng/ml) [3].
